Source: the supplement of paper PMC6755084

B1: minF1; a variant is named by its letters at N, in order (parent)
chain: GAGACCGCAACTGAAAAGTTGTTNNNNAANNNNGGNTNNATTTCTGCACGTAGAAGCAAAAGGC

Variants of: B1
Assay: fraction ligated after 30 min (ligated reads / total reads); higher = more ligase activity
Settings: with F1*subA RNA substrate (template-directed ligation), 42 °C
Protocol: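 Chip-synthesised pool of minF1 ligase ribozyme variants (single and double substitutions, single to quadruple deletions, bulge and P2 designed variants) was transcribed with T7 and reacted as a pool with excess substrate F1*subA for 30 min at 42 C in 50 mM EPPS pH 8.5, 25 mM MgCl2. Ligated and unligated RNAs were separated by PAGE, barcoded by RT and deep sequenced; fraction ligated = ligated reads / total reads, relative activity = FL / FL of wild-type minF1 (0.76); sequencing FL correlated with PAGE (R2 = 0.98). Sequences are the DNA template of the ribozyme.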

Compared with ATAGTGGAGTA G34T, ACGAGGTGTGA is lower in fraction ligated: 0.00645 for the first, 0.00342 for the second.

Compared with TCAGTGGAGTT T23A G34T T37G, ATCAAAGAGTT A28G G34T T37G A40G is lower in fraction ligated: 0.00183 for the first, 0.00143 for the second.

Going from ATAATGGTTGA to AGAAGGATTGA T23C A29T, the fraction ligated rises from 0.00319 to 0.00646.

First: TGAAGATGTGA T23A A29G
Second: TGAAGATGTGA T23A A29T
The fraction ligated of the first is lower: 0.00128 for the first, 0.00202 for the second.

Going from ATAGAGGAGTT G34T T37G to ATAGAGGAGTG G34T, the fraction ligated rises from 0.00132 to 0.0028.

First: ATAGTGTGTGA
Second: ACGATGGAGTA
The fraction ligated of the first is lower: 0.0025 for the first, 0.00344 for the second.

Going from ACGATGGAGTG to TCGATGGAGTT G34T T37G A40G, the fraction ligated falls from 0.0132 to 0.000433.

First: TGAAGGAGTGA A29T
Second: ACGATGGATGA
The fraction ligated of the first is lower: 0.000652 for the first, 0.0034 for the second.

First: ATAGATGGGTT G34A T37G
Second: ATAGATGAGTT G34T T37G A40G
The fraction ligated of the first is lower: 0.000508 for the first, 0.00153 for the second.

Compared with TCGAGGATTGA T23A A29T, TCGAGGAGTGA A29T is lower in fraction ligated: 0.00747 for the first, 0.00284 for the second.

Going from ATAGATGTGTG to ATAGATGTGTA, the fraction ligated falls from 0.00629 to 0.00402.

Going from ATAGAGGGTGA to TCGATGTGTGA T23A, the fraction ligated rises from 0.00176 to 0.00234.

First: TCAGTGGGTGA
Second: ATAGGGATTGA A29T
The fraction ligated of the first is lower: 0.00233 for the first, 0.0025 for the second.

Compared with CGAAGGAGTGA A29T, TCAGTGGATGA is lower in fraction ligated: 0.00331 for the first, 0.00185 for the second.

Going from TCGAGGTGTGA to ATAATGGGTGA, the fraction ligated rises from 0.00212 to 0.00329.

Compared with ACGATGATTGA, TCGATATGTGA T23A is higher in fraction ligated: 0.00224 for the first, 0.00444 for the second.

Going from ACAGTGGTGTA to ACAGTGGTGTG, the fraction ligated rises from 0.000648 to 0.00543.

Going from ATAGATAGTGA to ATAGTATGTGA, the fraction ligated rises from 0.00268 to 0.00386.

Going from ATCAAAGGTGA A28G to AGAAGGATGTA T23C A29T, the fraction ligated rises from 0.00196 to 0.00442.

Going from TCGATGGAGTA T23A G34T to ACGATGGTTGA, the fraction ligated falls from 0.139 to 0.00307.

Compared with TCGATGGGTGA T23A, ATCAAATAGTG A28G G34T is higher in fraction ligated: 0.000539 for the first, 0.0037 for the second.

Compared with TCGAGATGTGA A28T A29G, AGAAGGAGTGA T23C A29T is lower in fraction ligated: 0.00721 for the first, 0.0019 for the second.

Compared with ATAGAGTGTGA, ATAAGGATTGA is lower in fraction ligated: 0.00554 for the first, 0.0033 for the second.

Compared with ACGATGTGTGA, ATCAAATGGGT A28G G35A T37G A40T is lower in fraction ligated: 0.00232 for the first, 0.00114 for the second.

Going from ACAGTGGAGTG G34T to TCAGTGGAGTT G34T T37G, the fraction ligated falls from 0.0352 to 0.00084.

First: TCAGTGGAGTG T23A G34T
Second: AGAAGGTGTGA T23A A29T
The fraction ligated of the first is higher: 0.0406 for the first, 0.00188 for the second.

Going from TCGATGGATGA T23A to AGAAGGATGTG A29T, the fraction ligated rises from 0.00236 to 0.00505.

First: CGAAGGATGTA A29T
Second: ATAGATGGGTT G34A G35T T37G A40G
The fraction ligated of the first is higher: 0.00492 for the first, 0.00103 for the second.

Going from ATAGATGGGTT G34A T37G A40G to TCGAGATGTGA T23A A28T A29G, the fraction ligated rises from 0 to 0.00546.

First: ATAATGTGTGA
Second: ATAGGGATGTA A29T
The fraction ligated of the first is higher: 0.00221 for the first, 0.00166 for the second.

Compared with CGAAGGATTGA T23A A29T, ATCAAATGGGT A28G G35T T37G A40T is lower in fraction ligated: 0.0076 for the first, 0.00169 for the second.

Going from ATCAAATGGTA A28G G34T to ATCAAATGGTA A28G G34A, the fraction ligated rises from 0.00212 to 0.00267.

First: ATAGATGAGTT G34T T37G
Second: TCAGTGGTTGA T23A
The fraction ligated of the first is lower: 0.00193 for the first, 0.00216 for the second.

Compared with ATAGATGGGTT G34T T37G, TCGATGGAGTT G34T T37G is higher in fraction ligated: 0.00071 for the first, 0.00201 for the second.

Going from ATAAGATGTGA A29G to ATAAGATGTGA A29T, the fraction ligated falls from 0.00765 to 0.00321.

Compared with ATAGAGGAGTA, ATAGAGGAGTG is higher in fraction ligated: 0.00256 for the first, 0.00449 for the second.

Going from TCGATGGTGTG T23A to ATAGATGAGTG G34T, the fraction ligated rises from 0.00391 to 0.00408.

First: ATCAAAATGTG A28G
Second: ATAGATTGTGA
The fraction ligated of the first is higher: 0.00629 for the first, 0.00167 for the second.

Going from TCAGTGGAGTG T23A to TCGATGGAGTG G34T, the fraction ligated rises from 0.00892 to 0.253.

First: ATCAAATGGTT A28G G34A G35T T37G
Second: AGAAGATGTGA A28T A29G
The fraction ligated of the first is lower: 0.00118 for the first, 0.00743 for the second.

First: ATCAAAGAGTA A28G
Second: ATCAAAGGGTT A28G G34A T37G A40G
The fraction ligated of the first is higher: 0.0017 for the first, 0.000889 for the second.

Compared with TGAAGGATTGA A29T, CGAAGATGTGA A29T is higher in fraction ligated: 0.0036 for the first, 0.00363 for the second.

First: CGAAGATGTGA A29G
Second: AGAAGGATGTA T23A A29T
The fraction ligated of the first is lower: 0.00313 for the first, 0.00442 for the second.

Compared with AGAAGGATTGA A29T, AGAAGATGTGA T23C A28T A29G is lower in fraction ligated: 0.00498 for the first, 0.00411 for the second.

Compared with ATAGGGAGTGA A29T, TGAAGGATGTG T23A A29T is higher in fraction ligated: 0.00713 for the first, 0.00766 for the second.

Going from ATCAAATAGTA A28G G34T to ACAGTGGTTGA, the fraction ligated falls from 0.00133 to 0.00127.

First: CGAAGGTGTGA T23A A29T
Second: TCAGTGTGTGA
The fraction ligated of the first is lower: 0.000502 for the first, 0.00218 for the second.

Compared with TCAGTGGTGTG T23A, AGAAGGATGTA A29T is higher in fraction ligated: 0.00413 for the first, 0.00434 for the second.

Going from ATCAAATGGTT A28G G35A T37G to ACGATGGTGTG, the fraction ligated rises from 0.00104 to 0.00433.

First: ACGATGGTGTA
Second: TCGAGGTGTGA T23A
The fraction ligated of the first is lower: 0.00204 for the first, 0.00322 for the second.

Going from TCGAGGTGTGA A29T to ACGATGGAGTT G34T T37G A40G, the fraction ligated falls from 0.00308 to 0.00103.

Going from ATAGGATGTGA to ACGATGGGTGA, the fraction ligated falls from 0.00396 to 0.00155.

Going from TCGAGGAGTGA to ATAGGATGTGA A28T A29G, the fraction ligated rises from 0.00338 to 0.0105.

First: ATAGAGATGTA
Second: ATAGAGATGTG
The fraction ligated of the first is lower: 0.00327 for the first, 0.00764 for the second.

First: ATAAGGAGTGA A29T
Second: TCGATGATGTA T23A
The fraction ligated of the first is higher: 0.00469 for the first, 0.00263 for the second.

Compared with TCAGTGGTGTG, TCAGTGGTGTA is lower in fraction ligated: 0.00278 for the first, 0.00201 for the second.

Compared with TCGAGGATTGA A29T, ACGAGGATGTA is lower in fraction ligated: 0.00979 for the first, 0.00292 for the second.

First: ACGAGGATGTG
Second: ATCAAAGATGA A28G
The fraction ligated of the first is higher: 0.00917 for the first, 0.00211 for the second.

First: ATAGATGGGTA G34T
Second: ATAGATGGGTA G34A
The fraction ligated of the first is lower: 0.00288 for the first, 0.00325 for the second.

Going from ATCAAAGGGTT A28G G34T T37G A40G to AGAAGGTGTGA T23C A29T, the fraction ligated rises from 0.000216 to 0.00383.

Compared with ATAGATGGGGT G34A G35T T37G A40T, ATCAAATGGTT A28G G34T T37G is lower in fraction ligated: 0.00172 for the first, 0.000947 for the second.

Going from TCGAGGATGTA T23A to ATCAAATGGTT A28G G34A T37G A40G, the fraction ligated falls from 0.0024 to 0.000551.

First: TGAAGGTGTGA A29T
Second: ATAATGGTGTA
The fraction ligated of the first is lower: 0.00178 for the first, 0.00235 for the second.

Going from ATAATGGTGTG to ATCAAATAGTT A28G G34T T37G, the fraction ligated falls from 0.00419 to 0.00135.

Compared with ACAGTGGAGTT G34T T37G, ACAGTGTGTGA is higher in fraction ligated: 0.00159 for the first, 0.00188 for the second.

Going from ACGAGATGTGA A28T A29G to ATAAGATGTGA, the fraction ligated falls from 0.00619 to 0.00253.

Compared with TCGATGGGTGA, ACGATGGAGTA G34T is higher in fraction ligated: 0.00376 for the first, 0.0869 for the second.

Compared with TCGATGGATGA, ACAGTGGGTGA is higher in fraction ligated: 0.00257 for the first, 0.00475 for the second.

Compared with ATCAAAGAGTG A28G, ATAGATGATGA is lower in fraction ligated: 0.00384 for the first, 0.00363 for the second.

Going from ATAGAGGAGTT G34T T37G A40G to ATAGATGTTGA, the fraction ligated rises from 0.00121 to 0.00174.

First: ATCAAAGAGTA A28G G34T
Second: TGAAGGATGTG A29T
The fraction ligated of the first is lower: 0.00276 for the first, 0.00863 for the second.

First: TCGATGGAGTT T23A G34T T37G A40G
Second: TCGATGGAGTA T23A
The fraction ligated of the first is lower: 0.00165 for the first, 0.00851 for the second.

First: ATCAAATGGTT A28G G34T T37G A40G
Second: TCGATGATGTG T23A
The fraction ligated of the first is lower: 0.000795 for the first, 0.00459 for the second.

Compared with ATAATGATGTG, ATAATGATGTA is lower in fraction ligated: 0.00571 for the first, 0.00361 for the second.

Going from TGAAGGAGTGA T23A A29T to TCGATGGTGTA, the fraction ligated rises from 0.00234 to 0.00285.

First: TCGATGGTGTG
Second: ATAGTGGATGA
The fraction ligated of the first is higher: 0.00467 for the first, 0.00362 for the second.

Compared with ATCAAAGGGTA A28G, ACGATGGAGTT G34T T37G is lower in fraction ligated: 0.00291 for the first, 0.00155 for the second.

Compared with ATAGAGAGTGA, ACGAGGATTGA A29T is higher in fraction ligated: 0.000691 for the first, 0.00766 for the second.

Compared with AGAAGGATGTG T23A A29T, ATAGAATGTGA is lower in fraction ligated: 0.00517 for the first, 0.00417 for the second.

First: AGAAGATGTGA A29T
Second: AGAAGATGTGA A29G
The fraction ligated of the first is higher: 0.00448 for the first, 0.00203 for the second.

Compared with CGAAGGAGTGA T23A A29T, ATAGTGGTTGA is lower in fraction ligated: 0.00498 for the first, 0.0023 for the second.

First: TGAAGGTGTGA T23A A29T
Second: TCAGTGGAGTG
The fraction ligated of the first is lower: 0.00263 for the first, 0.00572 for the second.

Going from AGAAGGAGTGA T23A A29T to ATCAAATATGA A28G, the fraction ligated rises from 0.00185 to 0.00291.

Work on ACGAGGATTGA yielded a fraction ligated of 0.00256.
